# Data taken from patent publication US20120058906A1.
# Experiments:
# [1] = molecular target: rHuman Notch-1/Fc Chimera, CF (R&D Systems Cat#3647-TK) (human) (UniProt P46531); experiment: MSD ECL multi-spot plate, antigen immobilized; Fab 12 nM; blank spot 573
# [2] = molecular target: Recombinant Human DLL4 (R&D Systems Cat#1506-D4/CF) (human) (UniProt Q9NR61); experiment: as above
# [3] = molecular target: rHuman HGF R/c-MET/Fc Chimera, CF (R&D Systems Cat#358-MT/CF) (human) (UniProt P08581); experiment: as above
# [4] = molecular target: rHuman Notch-1/Fc Chimera, CF (R&D Systems Cat#3647-TK) (human) (UniProt P46531); experiment: MSD ECL multi-spot plate, antigen immobilized; Fab 120 nM; blank spot 6749
# [5] = molecular target: Recombinant Human DLL4 (R&D Systems Cat#1506-D4/CF) (human) (UniProt Q9NR61); experiment: as above
# [6] = molecular target: rHuman HGF R/c-MET/Fc Chimera, CF (R&D Systems Cat#358-MT/CF) (human) (UniProt P08581); experiment: as above
# [7] = molecular target: rHuman Notch-1/Fc Chimera, CF (R&D Systems Cat#3647-TK) (human) (UniProt P46531); experiment: ECL (MSD multi-spot) screen, antigen spotted on plate, Fab at 0.12 uM; blank spot 2225
# [8] = molecular target: Recombinant Human DLL4 (R&D Systems Cat#1506-D4/CF) (human) (UniProt Q9NR61); experiment: as above
# [9] = molecular target: rHuman HGF R/c-MET/Fc Chimera, CF (R&D Systems Cat#358-MT/CF) (human) (UniProt P08581); experiment: as above
# [10] = molecular target: rHuman ErbB2/Fc Chimera, CF (R&D Systems Cat#1129-ER) (human) (UniProt P04626); experiment: as above
# [11] = molecular target: rHuman Notch-1/Fc Chimera, CF (R&D Systems Cat#3647-TK) (human) (UniProt P46531); experiment: MSD ECL multi-spot plate, antigen immobilized; Fab 1.2 nM; blank spot 227
# [12] = molecular target: Recombinant Human DLL4 (R&D Systems Cat#1506-D4/CF) (human) (UniProt Q9NR61); experiment: as above
# [13] = molecular target: rHuman HGF R/c-MET/Fc Chimera, CF (R&D Systems Cat#358-MT/CF) (human) (UniProt P08581); experiment: as above
# [14] = molecular target: rHuman Notch-1/Fc Chimera, CF (R&D Systems Cat#3647-TK) (human) (UniProt P46531); experiment: MSD ECL multi-spot plate, antigen immobilized; Fab 0.12 nM; blank spot 264
# [15] = molecular target: Recombinant Human DLL4 (R&D Systems Cat#1506-D4/CF) (human) (UniProt Q9NR61); experiment: as above
# [16] = molecular target: rHuman HGF R/c-MET/Fc Chimera, CF (R&D Systems Cat#358-MT/CF) (human) (UniProt P08581); experiment: as above
# [17] = molecular target: rHuman Notch-1/Fc Chimera, CF (R&D Systems Cat#3647-TK) (human) (UniProt P46531); experiment: ECL (MSD multi-spot), Fab 210 nM; blank 833
# [18] = molecular target: rHuman EGF R/Fc Chimera, CF (R&D Systems Cat#344-ER) (human) (UniProt P00533); experiment: ECL (MSD multi-spot), Fab 210 nM; blank 833
# [19] = molecular target: rHuman Erythropoietin R/Fc Chimera, CF (R&D Systems Cat#963-ER) (human) (UniProt P19235); experiment: ECL (MSD multi-spot), Fab 210 nM; blank 833
# Chain of rHuman Erythropoietin R/Fc Chimera, CF (R&D Systems Cat#963-ER) (human) (P19235 25-250, change not shown): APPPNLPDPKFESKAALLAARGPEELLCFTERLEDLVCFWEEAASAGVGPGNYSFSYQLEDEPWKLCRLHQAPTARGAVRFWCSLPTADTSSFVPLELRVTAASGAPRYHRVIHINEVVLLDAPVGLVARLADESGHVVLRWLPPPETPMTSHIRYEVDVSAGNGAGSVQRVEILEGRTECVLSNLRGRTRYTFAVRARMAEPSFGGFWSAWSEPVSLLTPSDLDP
# [20] = molecular target: rHuman IGF-1 sR (IGF-1 sR), CF (R&D Systems Cat#391-GR) (human) (UniProt P08069); experiment: ECL (MSD multi-spot), Fab 210 nM; blank 833
# [21] = molecular target: rHuman HGF R/c-MET/Fc Chimera, CF (R&D Systems Cat#358-MT/CF) (human) (UniProt P08581); experiment: ECL (MSD multi-spot), Fab 210 nM; blank 833
# [22] = molecular target: rHuman ErbB2/Fc Chimera, CF (R&D Systems Cat#1129-ER) (human) (UniProt P04626); experiment: ECL (MSD multi-spot), Fab 210 nM; blank 833
# [23] = molecular target: rHuman Notch-1/Fc Chimera, CF (R&D Systems Cat#3647-TK) (human) (UniProt P46531); experiment: ECL (MSD multi-spot), Fab 3.3 nM; blank 359
# [24] = molecular target: rHuman EGF R/Fc Chimera, CF (R&D Systems Cat#344-ER) (human) (UniProt P00533); experiment: ECL (MSD multi-spot), Fab 3.3 nM; blank 359
# [25] = molecular target: rHuman Erythropoietin R/Fc Chimera, CF (R&D Systems Cat#963-ER) (human) (UniProt P19235); experiment: ECL (MSD multi-spot), Fab 3.3 nM; blank 359
# [26] = molecular target: rHuman IGF-1 sR (IGF-1 sR), CF (R&D Systems Cat#391-GR) (human) (UniProt P08069); experiment: ECL (MSD multi-spot), Fab 3.3 nM; blank 359
# [27] = molecular target: rHuman HGF R/c-MET/Fc Chimera, CF (R&D Systems Cat#358-MT/CF) (human) (UniProt P08581); experiment: ECL (MSD multi-spot), Fab 3.3 nM; blank 359
# [28] = molecular target: rHuman ErbB2/Fc Chimera, CF (R&D Systems Cat#1129-ER) (human) (UniProt P04626); experiment: ECL (MSD multi-spot), Fab 3.3 nM; blank 359
# [29] = molecular target: rHuman IGF-1 sR, CF (R&D Systems Cat#391-GR) (human) (UniProt P08069); experiment: ECL (MSD multi-spot) screen, antigen spotted on plate, Fab at 0.21 uM; blank spot 489
# [30] = molecular target: rHuman EGF R/Fc Chimera, CF (R&D Systems Cat#344-ER) (human) (UniProt P00533); experiment: as above
# [31] = molecular target: rHuman HGF R/c-MET/Fc Chimera, CF (R&D Systems Cat#358-MT/CF) (human) (UniProt P08581); experiment: as above
# [32] = molecular target: rHuman ErbB2/Fc Chimera, CF (R&D Systems Cat#1129-ER) (human) (UniProt P04626); experiment: as above
# [33] = molecular target: rHuman Notch-1/Fc Chimera, CF (R&D Systems Cat#3647-TK) (human) (UniProt P46531); experiment: ECL (MSD multi-spot), Fab […]; blank 376
# [34] = molecular target: rHuman EGF R/Fc Chimera, CF (R&D Systems Cat#344-ER) (human) (UniProt P00533); experiment: ECL (MSD multi-spot), Fab […]; blank 376
# [35] = molecular target: rHuman Erythropoietin R/Fc Chimera, CF (R&D Systems Cat#963-ER) (human) (UniProt P19235); experiment: ECL (MSD multi-spot), Fab […]; blank 376
# [36] = molecular target: rHuman IGF-1 sR (IGF-1 sR), CF (R&D Systems Cat#391-GR) (human) (UniProt P08069); experiment: ECL (MSD multi-spot), Fab […]; blank 376
# [37] = molecular target: rHuman HGF R/c-MET/Fc Chimera, CF (R&D Systems Cat#358-MT/CF) (human) (UniProt P08581); experiment: ECL (MSD multi-spot), Fab […]; blank 376
# [38] = molecular target: rHuman ErbB2/Fc Chimera, CF (R&D Systems Cat#1129-ER) (human) (UniProt P04626); experiment: ECL (MSD multi-spot), Fab […]; blank 376
# [39] = molecular target: rHuman Notch-1/Fc Chimera, CF (R&D Systems Cat#3647-TK) (human) (UniProt P46531); experiment: ECL (MSD multi-spot), Fab 52.5 nM; blank 467
# [40] = molecular target: rHuman EGF R/Fc Chimera, CF (R&D Systems Cat#344-ER) (human) (UniProt P00533); experiment: ECL (MSD multi-spot), Fab 52.5 nM; blank 467
# [41] = molecular target: rHuman Erythropoietin R/Fc Chimera, CF (R&D Systems Cat#963-ER) (human) (UniProt P19235); experiment: ECL (MSD multi-spot), Fab 52.5 nM; blank 467
# [42] = molecular target: rHuman IGF-1 sR (IGF-1 sR), CF (R&D Systems Cat#391-GR) (human) (UniProt P08069); experiment: ECL (MSD multi-spot), Fab 52.5 nM; blank 467
# [43] = molecular target: rHuman HGF R/c-MET/Fc Chimera, CF (R&D Systems Cat#358-MT/CF) (human) (UniProt P08581); experiment: ECL (MSD multi-spot), Fab 52.5 nM; blank 467
# [44] = molecular target: rHuman ErbB2/Fc Chimera, CF (R&D Systems Cat#1129-ER) (human) (UniProt P04626); experiment: ECL (MSD multi-spot), Fab 52.5 nM; blank 467
# [45] = molecular target: rHuman Notch-1/Fc Chimera, CF (R&D Systems Cat#3647-TK) (human) (UniProt P46531); experiment: MSD ECL multi-spot plate, antigen immobilized; Fab 421.12 nM; blank spot 639
# [46] = molecular target: rHuman Erythropoietin R/Fc Chimera, CF (R&D Systems Cat#963-ER) (human) (UniProt P19235); experiment: as above
# [47] = molecular target: Recombinant Human DLL4 (R&D Systems Cat#1506-D4/CF) (human) (UniProt Q9NR61); experiment: as above
# [48] = molecular target: rHuman HGF R/c-MET/Fc Chimera, CF (R&D Systems Cat#358-MT/CF) (human) (UniProt P08581); experiment: as above
# [49] = molecular target: rHuman Notch-1/Fc Chimera, CF (R&D Systems Cat#3647-TK) (human) (UniProt P46531); experiment: MSD ECL multi-spot plate, antigen immobilized; Fab 42.112 nM; blank spot 323
# [50] = molecular target: rHuman Erythropoietin R/Fc Chimera, CF (R&D Systems Cat#963-ER) (human) (UniProt P19235); experiment: as above
# [51] = molecular target: Recombinant Human DLL4 (R&D Systems Cat#1506-D4/CF) (human) (UniProt Q9NR61); experiment: as above
# [52] = molecular target: rHuman HGF R/c-MET/Fc Chimera, CF (R&D Systems Cat#358-MT/CF) (human) (UniProt P08581); experiment: as above
# [53] = molecular target: rHuman Erythropoietin R/Fc Chimera, CF (R&D Systems Cat#963-ER) (human) (UniProt P19235); experiment: ECL (MSD multi-spot) screen, antigen spotted on plate, Fab at 0.42 uM; blank spot 450
substance,measurement,setting,value
Fab VH3-23_IGHD3-10*01>3_IGHJ6*01 & O12_IGKJ1*01,ECL signal,[1],2580 ECL signal
same,ECL signal,[2],2510 ECL signal
same,ECL signal,[3],2700 ECL signal
same,ECL signal,[4],14400 ECL signal
same,ECL signal,[5],20600 ECL signal
same,ECL signal,[6],15900 ECL signal
same,ECL signal,[7],5500
same,ECL signal,[8],6650
same,ECL signal,[9],5470
same,ECL signal,[10],4580
same,ECL signal,[11],660 ECL signal
same,ECL signal,[12],319 ECL signal
same,ECL signal,[13],412 ECL signal
same,ECL signal,[14],218 ECL signal
same,ECL signal,[15],210 ECL signal
same,ECL signal,[16],287 ECL signal
Fab VH4-31_IGHD2-15*01_IGHJ2*01 & V1-4_IGLJ4*01,ECL signal,[17],1970 ECL signal
same,ECL signal,[18],1620 ECL signal
same,ECL signal,[19],2120 ECL signal
same,ECL signal,[20],1430 ECL signal
same,ECL signal,[21],2060 ECL signal
same,ECL signal,[22],1980 ECL signal
same,ECL signal,[23],726 ECL signal
same,ECL signal,[24],847 ECL signal
same,ECL signal,[25],695 ECL signal
same,ECL signal,[26],743 ECL signal
same,ECL signal,[27],849 ECL signal
same,ECL signal,[28],1030 ECL signal
same,ECL signal,[29],1560
same,ECL signal,[30],1300
same,ECL signal,[31],1530
same,ECL signal,[32],1310
same,ECL signal,[33],669 ECL signal
same,ECL signal,[34],824 ECL signal
same,ECL signal,[35],776 ECL signal
same,ECL signal,[36],814 ECL signal
same,ECL signal,[37],981 ECL signal
same,ECL signal,[38],930 ECL signal
same,ECL signal,[39],1320 ECL signal
same,ECL signal,[40],1110 ECL signal
same,ECL signal,[41],1320 ECL signal
same,ECL signal,[42],911 ECL signal
same,ECL signal,[43],1290 ECL signal
same,ECL signal,[44],1510 ECL signal
Fab VH3-23_IGHD3-10*01>1′_IGHJ3*01 & O12_IGKJ1*01,ECL signal,[45],1060 ECL signal
same,ECL signal,[46],1300 ECL signal
same,ECL signal,[47],1090 ECL signal
same,ECL signal,[48],1200 ECL signal
same,ECL signal,[49],437 ECL signal
same,ECL signal,[50],759 ECL signal
same,ECL signal,[51],404 ECL signal
same,ECL signal,[52],565 ECL signal
same,ECL signal,[53],1500
